According to publication PMC1891329:

Molecular target: full-length MglA (residues 1–205) fused to Zif or to the ω subunit of E. coli RNAP (F. tularensis subspecies holarctica LVS)
Test: two-hybrid

“full-length F. tularensis LVS SspA (residues 1–210) fused to the ω subunit of E. coli RNAP or to Zif (natural protein)” showed a fold activation of the lacZ reporter of 22 fold.
